Laboratory results reported in the supplement of paper PMC10126150.
± gives the standard deviation of the averaged measurements.

The sequences below were run on ATP (assay: switch fluorescence ratio, 500 uM ATP over buffer (Cy3 cluster intensity, sum of 5 cycles each) (fold (ratio)); higher = stronger signal-on switching upon ATP binding; sequences stand for … in TCGTCGGCAGCGTCAGATGTGTATAAGAGACAGTTTTTTTTTTTTTTTTTTTTTTTTT…TC). Details: aptamer strand: ATP DNA aptamer (quencher-CACCTGGGGGAGTATTGCGGAGGAAGG + anchor), 100 nM annealed; ATP concentration: 500 uM.
In short: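 Between each of five buffer/ATP cycles, the flow-cell was stripped with NaOH and re-annealed. Each cycle imaged Cy3-labelled switching-strand clusters, annealed to 100 nM quencher-labelled ATP aptamer on a modified Illumina MiSeq flow-cell, first in selection buffer and then after 15 min with 500 uM ATP at 22 °C. The fluorescence ratio is summed target-cycle over summed buffer-cycle Cy3 intensity per cluster, averaged per switch-domain sequence, with clusters outside 100-1000 RFU excluded.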
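Further: ATP exposure 15 min at 22 °C before imaging.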

| Sequence | switch fluorescence ratio |
| --- | --- |
| GGTTTTGTGT | 0.962 ± 0.038 |
| GGTTTTTCTG | 0.992 ± 0.061 |
| GGTTTTTGGA | 0.981 ± 0.038 |
| GGTTTTTGTG | 1.01 ± 0.034 |
| GTAAAAGCGG | 0.9788 ± 0.0082 |
| GTAAAATGGG | 0.997 ± 0.011 |
| GTAAAGGGCG | 0.973 ± 0.021 |
| GTAAATATAG | 0.9813 ± 3.7e-05 |
| GTAAATATGG | 0.987 ± 0.024 |
| GTAACAGATT | 0.976 ± 0.039 |
| GTAACGTTAG | 0.998 ± 0.042 |
| GTAACTTTTT | 1.056 ± 0.0034 |
| GTAAGAATGG | 1.03 ± 0.03 |
| GTAAGAGTGC | 1.03 ± 0.026 |
| GTAAGAGTTC | 1.02 ± 0.051 |
| GTAAGATATT | 0.9994 ± 0.0098 |
| GTAAGGAGAG | 1.02 ± 0.017 |
| GTAAGGGAAA | 1.02 ± 0.051 |
| GTAAGTTGGG | 0.993 ± 0.024 |
| GTAATAAGAT | 0.996 ± 0.0046 |
| GTAATAAGGA | 0.994 ± 0.029 |
| GTAATAATTT | 0.9982 ± 0.0034 |
| GTAATAGAGA | 1.01 ± 0.043 |
| GTAATCGCAA | 2.65 ± 0.15 |
| GTAATGGATC | 0.986 ± 0.042 |

| Sequence | switch fluorescence ratio |
| --- | --- |
| GTAATGTCTT | 0.9797 ± 0.0084 |
| GTAATTAGAT | 0.969 ± 0.022 |
| GTAATTTAGT | 1.02 ± 0.022 |
| GTAATTTATC | 1.0089 ± 0.00052 |
| GTAATTTATG | 1.01 ± 0.02 |
| GTAATTTGGT | 0.9904 ± 0.0032 |
| GTACGGGGAA | 1.04 ± 0.03 |
| GTACGGGGGT | 0.996 ± 0.059 |
| GTACTAGTAT | 0.977 ± 0.023 |
| GTACTGGATT | 0.988 ± 0.035 |
| GTACTGTAGG | 1 ± 0.026 |
| GTACTTGGCT | 1.016 ± 0.0023 |
| GTACTTTCGG | 0.98 ± 0.015 |
| GTAGAAAAAA | 1.002 ± 0.01 |
| GTAGAAAGTA | 0.973 ± 0.031 |
| GTAGAAGGGT | 1.01 ± 0.016 |
| GTAGCCCGGG | 0.993 ± 0.026 |
| GTAGCGGCTG | 1.037 ± 0.01 |
| GTAGCTATAT | 4.08 ± 0.14 |
| GTAGGACGTC | 1.02 ± 0.011 |
| GTAGGCGGGG | 0.99 ± 0.018 |
| GTAGGCTAGT | 1 ± 0.033 |
| GTAGGGAACC | 0.976 ± 0.025 |
| GTAGGGGGGT | 1.07 ± 0.21 |
| GTAGGGGGTT | 0.9951 ± 0.0041 |

| Sequence | switch fluorescence ratio |
| --- | --- |
| GTAGGGTCAG | 0.994 ± 0.027 |
| GTAGTAGCGG | 1.02 ± 0.025 |
| GTAGTCTAGA | 0.965 ± 0.024 |
| GTAGTTACGG | 1.05 ± 0.019 |
| GTAGTTAGGG | 1.02 ± 0.015 |
| GTAGTTCGGG | 0.997 ± 0.036 |
| GTAGTTTTGC | 1.0341 ± 0.00013 |
| GTATAAAGGG | 1.02 ± 0.048 |
| GTATAAGAGC | 0.985 ± 0.033 |
| GTATAATTGT | 0.984 ± 0.019 |
| GTATAATTTG | 0.9933 ± 0.0019 |
| GTATACATTG | 1.02 ± 0.027 |
| GTATAGTCGG | 1.04 ± 0.017 |
| GTATATGGTC | 1.02 ± 0.03 |
| GTATCCTATA | 1 ± 0.017 |
| GTATCTAGTT | 0.996 ± 0.024 |
| GTATGAATCG | 0.961 ± 0.056 |
| GTATGAATGT | 0.985 ± 0.03 |
| GTATGAATTA | 0.985 ± 0.033 |
| GTATGACAGT | 1.02 ± 0.032 |
| GTATGGGTTT | 0.975 ± 0.012 |
| GTATGGTAGG | 1.03 ± 0.05 |
| GTATGTCCCC | 1.0169 ± 0.00096 |
| GTATTAAAGC | 1.024 ± 0.0052 |
| GTATTAGGGG | 1.01 ± 0.028 |

| Sequence | switch fluorescence ratio |
| --- | --- |
| GTATTATGGG | 1 ± 0.029 |
| GTATTATTAA | 1.05 ± 0.0015 |
| GTATTGGATA | 0.998 ± 0.042 |
| GTATTGGGTT | 1 ± 0.056 |
| GTATTTCCGG | 0.9965 ± 0.0056 |
| GTATTTTTTG | 0.9958 ± 0.0069 |
| GTCAAATATG | 0.9678 ± 0.0028 |
| GTCAGAACG | 1.03 ± 0.014 |
| GTCAGCAAAT | 1.05 ± 0.02 |
| GTCATAAGTG | 0.982 ± 0.04 |
| GTCATACCTT | 1.2 ± 0.1 |
| GTCATCAGTG | 1.02 ± 0.027 |
| GTCATGAGAT | 0.9987 ± 0.0047 |
| GTCATTAGCG | 0.973 ± 0.012 |
| GTCCAAATGG | 0.999 ± 0.022 |
| GTCCACAGGT | 1.69 ± 0.056 |
| GTCCAGGGGA | 1.04 ± 0.1 |
| GTCCATAGGT | 1.02 ± 0.013 |
| GTCCGCCTTG | 1.07 ± 0.011 |
| GTCCGGCAAT | 2.04 ± 0.33 |
| GTCCGGGGTC | 0.972 ± 0.065 |
| GTCCTTTCTG | 0.988 ± 0.014 |
| GTCGAAACAT | 1.04 ± 0.075 |
| GTCGAAGGTG | 1.11 ± 0.03 |
| GTCGATATTT | 1.01 ± 0.026 |

| Sequence | switch fluorescence ratio |
| --- | --- |
| GTCGGACGGA | 0.971 ± 0.042 |
| GTCGGATGTG | 0.954 ± 0.044 |
| GTCGGGGATA | 1 ± 0.049 |
| GTCGGGGGGG | 0.999 ± 0.031 |
| GTCGGGGGTT | 1.02 ± 0.049 |
| GTCGGTCTGG | 1 ± 0.098 |
| GTCGTAAGTT | 1.01 ± 0.024 |
| GTCGTAGGGA | 0.973 ± 0.013 |
| GTCGTCAAGT | 1.006 ± 0.0073 |
| GTCGTTGCTA | 1.01 ± 0.015 |
| GTCTAATAGT | 1.03 ± 0.015 |
| GTCTACTGCT | 1.07 ± 0.028 |
| GTCTGAAGGG | 1.0152 ± 0.0004 |
| GTCTGGGCGA | 1.01 ± 0.033 |
| GTCTTTTACG | 1.005 ± 0.0013 |
| GTCTTTTTAA | 1.03 ± 0.032 |
| GTGAAAGGCA | 1.004 ± 0.005 |
| GTGAAAGGGC | 1.01 ± 0.034 |
| GTGAAATTTT | 1.01 ± 0.039 |
| GTGAAGAAGA | 0.991 ± 0.0048 |
| GTGAAGGGGT | 1 ± 0.047 |
| GTGAAGTATT | 0.983 ± 0.033 |
| GTGACCAGAA | 0.983 ± 0.025 |
| GTGACCGCCC | 1.49 ± 0.39 |
| GTGACTTAGT | 1.03 ± 0.02 |

| Sequence | switch fluorescence ratio |
| --- | --- |
| GTGACTTCAA | 1.027 ± 0.0059 |
| GTGAGAAAGG | 0.982 ± 0.015 |
| GTGAGAATGT | 1.02 ± 0.02 |
| GTGAGAATTT | 1.05 ± 0.075 |
| GTGAGAGGTG | 1.05 ± 0.052 |
| GTGAGCTCAT | 1.01 ± 0.04 |
| GTGAGGACAA | 1.05 ± 0.036 |
| GTGAGGCGGA | 1.07 ± 0.087 |
| GTGAGGGGTT | 0.971 ± 0.044 |
| GTGAGTAAGG | 0.9778 ± 0.00085 |
| GTGAGTACTT | 1.03 ± 0.014 |
| GTGAGTCGGG | 0.987 ± 0.02 |
| GTGAGTTTTT | 1.02 ± 0.022 |
| GTGATAAGAA | 1.009 ± 0.0057 |
| GTGATAATGT | 0.981 ± 0.027 |
| GTGATACGGG | 1.04 ± 0.021 |
| GTGATAGTAA | 1.006 ± 0.0099 |
| GTGATATCGG | 1.05 ± 0.034 |
| GTGATCCTTC | 1.03 ± 0.034 |
| GTGATCTAGG | 1.04 ± 0.033 |
| GTGATGAGCG | 0.979 ± 0.037 |
| GTGATTAATC | 1.01 ± 0.075 |
| GTGATTGACT | 1.03 ± 0.025 |
| GTGATTGAGT | 0.9707 ± 0.0089 |
| GTGCACGTTG | 1.01 ± 0.019 |

| Sequence | switch fluorescence ratio |
| --- | --- |
| GTGCATGTGG | 0.9701 ± 0.0056 |
| GTGCGGAGAA | 0.986 ± 0.035 |
| GTGCTAACGG | 0.9633 ± 0.0069 |
| GTGCTAGGGT | 0.988 ± 0.02 |
| GTGCTGAATG | 1.02 ± 0.016 |
| GTGCTGGATT | 1.02 ± 0.018 |
| GTGCTGGTGG | 0.9839 ± 0.0043 |
| GTGCTGGTTT | 1.05 ± 0.14 |
| GTGCTTACGA | 1.068 ± 0.01 |
| GTGGAAGGCG | 0.975 ± 0.03 |
| GTGGAAGGGC | 1.03 ± 0.079 |
| GTGGACTTAA | 0.9953 ± 0.0046 |
| GTGGACTTTG | 0.971 ± 0.053 |
| GTGGAGGGGC | 0.958 ± 0.081 |
| GTGGATAAGA | 1.0003 ± 1.9e-06 |
| GTGGATCAAA | 1.02 ± 0.049 |
| GTGGATTTTT | 0.991 ± 0.015 |
| GTGGCACCTA | 0.988 ± 0.018 |
| GTGGCAGACC | 1.01 ± 0.012 |
| GTGGCAGGCA | 0.984 ± 0.033 |
| GTGGCATGTT | 0.9788 ± 0.0038 |
| GTGGCCATGC | 1.01 ± 0.025 |
| GTGGCCTGGA | 1.01 ± 0.025 |
| GTGGCGCTTT | 0.976 ± 0.023 |
| GTGGCGTAGG | 0.981 ± 0.021 |

| Sequence | switch fluorescence ratio |
| --- | --- |
| GTGGCTAACG | 0.972 ± 0.06 |
| GTGGCTGGGT | 0.981 ± 0.015 |
| GTGGGAATAT | 1.001 ± 0.0083 |
| GTGGGACAGC | 1.02 ± 0.052 |
| GTGGGACAGG | 1.01 ± 0.015 |
| GTGGGAGGAG | 0.985 ± 0.031 |
| GTGGGAGTTT | 1.01 ± 0.043 |
| GTGGGATAAA | 0.969 ± 0.011 |
| GTGGGATCTG | 0.9894 ± 0.008 |
| GTGGGCGGCC | 0.99 ± 0.028 |
| GTGGGCGGGA | 1.07 ± 0.14 |
| GTGGGCGGGC | 1.02 ± 0.093 |
| GTGGGGACGG | 0.977 ± 0.053 |
| GTGGGGAGGG | 1 ± 0.016 |
| GTGGGGAGTG | 1.01 ± 0.045 |
| GTGGGGATCC | 1.025 ± 0.0046 |
| GTGGGGCGCG | 1.02 ± 0.038 |
| GTGGGGGAGA | 0.9868 ± 0.0059 |
| GTGGGGGATG | 1 ± 0.033 |
| GTGGGGGG | 0.999 ± 0.029 |
| GTGGGGGTGT | 1.05 ± 0.055 |
| GTGGGGGTTG | 0.976 ± 0.043 |
| GTGGGGTAGA | 1.05 ± 0.021 |
| GTGGGGTCAA | 0.9985 ± 0.0085 |
| GTGGGGTCGC | 0.978 ± 0.012 |
